The record followed here is US9856460B2, “Nucleic acids encoding synthetic scaffolds and host cells genetically modified with the nucleic acids” (The Regents of the University of California, priority 2008, dated 2018).

Entries after “also recorded” stand apart in the source; their conditions may differ.

The test system of the experiment is mevalonate biosynthetic pathway. The experiment can be described thus: Mevalonate production with synthetic scaffolds in E. coli. The experiment is classed as cell-based, Escherichia coli. As for the experimental part: The scalability of the co-recruitment strategy was tested by building separate scaffold devices capable of co-localizing multiple enzymes. Scaffolds provide a means for physically separating the binding elements for design control from the catalytic activities. Thus, the only modification to the enzyme necessary for gaining modular control over complex formation is the addition of a single interaction ligand to each enzyme. A peptide ligand specific for a corresponding protein-protein interaction domain was recombined to the C-terminus of each enzyme of the mevalonate biosynthetic pathway (FIG. 3a). Scaffolds were built by tethering together, via flexible nine amino acid glycine-serine linkers, different numbers of three protein-protein interaction domains from metazoan genomes: the GTPase Binding Domain (GBD) from the actin polymerization switch N-WASP, the SH3 domain, and the PSD95/DlgA/Zo-1 (PDZ) domain from the adaptor protein syntrophin (see Table 1, below).
By varying the number of repeats of these interaction domains, the ratio of individual pathway enzymes co-localized to the resultant complex could be controlled. Scaffolds were built with a single GBD domain for recruiting AtoB and varying numbers of SH3 and PDZ domains for recruiting HMGS and HMGR, respectively. A matrix of scaffolds was made with the architecture (N-terminal to C-terminal) of GBDxSH3yPDZz where x=1 and y and z were varied to be 1, 2, or 4. For separate inducible control, the pathway enzymes were placed under transcriptional control of the tetracycline-inducible promoter (Ptet), and the scaffolds were under transcriptional control of the arabinose-inducible promoter (PBAD). In an effort to lower the metabolic load imposed on the production host, mevalonate production experiments were conducted with low expression levels of the mevalonate pathway enzymes (7 nM aTc) and a high scaffold expression level (250 μM arabinose) to improve pathway efficiency.

B1: G1S2P2: optimized scaffold polypeptide with 1, 2, and 2 repeats of GBD, SH3, and PDZ domains (SEQ ID NO:37) (protein)
chain: MTKADIGTPSNFQHIGHVGWDPNTGFDLNNLDPELKNLFDMCGISEAQLKDRETSKVIYDFIEKTGGVEAVKNELRRQAPGSGSGSGGSMAEYVRALFDFNGNDEEDLPFKKGDILRIRDKPEEQWWNAEDSEGKRGMIPVPYVEKYGSGSGSGGSMAEYVRALFDFNGNDEEDLPFKKGDILRIRDKPEEQWWNAEDSEGKRGMIPVPYVEKYGSGSGSGGSMLQRRRVTVRKADAGGLGISIKGGRENKMPILISKIFKGLAADQTEALFVGDAILSVNGEDLSSATHDEAVQALKKTGKEVVLEVKYMKEVSPYFKGSGSGSGGSMLQRRRVTVRKADAGGLGISIKGGRENKMPILISKIFKGLAADQTEALFVGDAILSVNGEDLSSATHDEAVQALKKTGKEVVLEVKYMKEVSPYFKGS
With B1, the “change in mevalonate production with increasing concentrations of glycerol” value (glycerol as carbon source, increases saturated at approximately 4% glycerol) is “improved dramatically; also recorded: significant increases”. Also, the “fold increase in mevalonate production compared to the unscaffolded pathway (G0S0P0)” value (low pathway enzyme expression (7 nM aTc), high scaffold expression (250 μM arabinose), 4% glycerol) is listed as 77 fold. Also, the “fold more mevalonate than G0S0P0-GFP” value (pathway under pTET, scaffold under pBAD, control expresses GFP instead of scaffold) turned out to be 77 fold.
